This note sets out measurements from patent publication US20200262867A1 (WNTRX PHARMACEUTICALS, published 2020).

The labels stand for the following.
B1: SEQ ID NO: 108 (peptide)
peptide: L[dNMeQ]TLR[S5]IQR[S5][Cba][2Nal]
modifications: staple 6-10; not fully specified (N-terminus, C-terminus); printed as L(N-methylQ)TLRXIQRX(CBA)(2-Nal), X/X stapled, (S) α-methyl, N-terminal Ac, C-terminal NH2
B2: SEQ ID NO: 180 (peptide)
peptide: Ac-HRQRSLQTLR[S5]IQR[S5][Cha][2Nal]-NH2
modifications: staple 11-15
SMILES: CC[C@H](C)[C@@H]1NC(=O)[C@@](C)(NC(=O)[C@H](CCCNC(=N)N)NC(=O)[C@H](CC(C)C)NC(=O)[C@@H](NC(=O)[C@H](CCC(N)=O)NC(=O)[C@H](CC(C)C)NC(=O)[C@H](CO)NC(=O)[C@H](CCCNC(=N)N)NC(=O)[C@H](CCC(N)=O)NC(=O)[C@H](CCCNC(=N)N)NC(=O)[C@H](Cc2c[nH]cn2)NC(C)=O)[C@@H](C)O)CCCC=CCCC[C@@](C)(C(=O)N[C@@H](CC2CCCCC2)C(=O)N[C@@H](Cc2ccc3ccccc3c2)C(N)=O)NC(=O)[C@H](CCCNC(=N)N)NC(=O)[C@H](CCC(N)=O)NC1=O
B3: SEQ ID NO: 163 (peptide)
peptide: HRQRSLQT[Cha]R[S5]IQR[S5][Cba][2Nal]
modifications: staple 11-15; not fully specified (residues 3, 7, N-terminus, C-terminus); printed as HR(N-methylQ)RSL(N-methylQ)T(Cha)RXIQRX(CBA)(2-Nal), X/X stapled, (S) α-methyl, N-terminal Ac, C-terminal NH2
B4: SEQ ID NO: 128 (peptide)
peptide: Ac-LQTL[NMeR′][S5]IQ[NMeR′][S5][Cba][2Nal]-NH2
modifications: staple 6-10; not fully specified (residue 2); printed as L(N-methylQ)TL(N-methylR)XIQ(N-methylR)X(CBA)(2-Nal)
B5: SEQ ID NO: 116 (peptide)
peptide: L[dNMeQ]TLR[S5]I[dNMeQ]R[S5][Cba][2Nal]
modifications: staple 6-10; not fully specified (N-terminus, C-terminus); printed as L(N-methylQ)TLRXI(N-methylQ)RX(CBA)(2-Nal), X/X stapled, (S) α-methyl, N-terminal Ac, C-terminal NH2
B6: SEQ ID NO: 126 (peptide)
peptide: Ac-L[NMeQ]T[αMeL]R[S5]IQR[S5][Cba][2Nal]-NH2
modifications: staple 6-10; not fully specified; printed as L(N-methylQ)T(α-methylL)RXIQRX(CBA)(2-Nal)
B7: SEQ ID NO: 127 (peptide)
peptide: Ac-LQTLR[S5]IQR[S5][Cha][2Nal]-NH2
modifications: staple 6-10
SMILES: CC[C@H](C)[C@@H]1NC(=O)[C@@](C)(NC(=O)[C@H](CCCNC(=N)N)NC(=O)[C@H](CC(C)C)NC(=O)[C@@H](NC(=O)[C@H](CCC(N)=O)NC(=O)[C@H](CC(C)C)NC(C)=O)[C@@H](C)O)CCCC=CCCC[C@@](C)(C(=O)N[C@@H](CC2CCCCC2)C(=O)N[C@@H](Cc2ccc3ccccc3c2)C(N)=O)NC(=O)[C@H](CCCNC(=N)N)NC(=O)[C@H](CCC(N)=O)NC1=O
B8: SEQ ID NO: 132 (peptide)
peptide: Ac-L[NMeQ]TL[hArg][S5]IQR[S5][Cba][2Nal]-NH2
modifications: staple 6-10; not fully specified; printed as L(N-methylQ)TL(homoR)XIQRX(CBA)(2-Nal)

*1 amine or outer side, *2 acyl side, *3 side chain or, on linkers, in order; H or OH if unused. Bridges are numbered along the chain shown (N, C = ends). Primed or numbered codes have the meaning given here. Where no end group is shown, it is not given here. Side-chain parts run from the residue outwards. [ ]: non-standard residue; d: D form. The star is where a group is joined. peptoid‑Q = (5-amino-5-oxopentyl)glycine, N-substituted glycine, NC(=O)CCCCN(CC(=O)[*:2])[*:1]; NMeR′ = N-methylarginine (methylation site not shown in the text); Diphenylacetyl = O=C(C(c1ccccc1)c1ccccc1)*; 2Nal = N[C@@H](Cc1ccc2ccccc2c1)C(=O)O; Hydrocinnamoyl = O=C(CCc1ccccc1)*; NMeR = CN[C@@H](CCCNC(=N)N)C(=O)O; Palmitoyl = CCCCCCCCCCCCCCCC(=O)*; Ala(cPr) = N[C@@H](CC1CC1)C(=O)O; hArg = N=C(N)NCCCC[C@H](N)C(=O)O; NMeE = CN[C@@H](CCC(=O)O)C(=O)O; NMeQ = CN[C@@H](CCC(N)=O)C(=O)O; dNMeQ = CN[C@H](CCC(N)=O)C(=O)O; Cha = N[C@@H](CC1CCCCC1)C(=O)O; αMeL = CC(C)C[C@](C)(N)C(=O)O; Cba = N[C@@H](CC1CCC1)C(=O)O; S5 = C=CCCC[C@](C)(N)C(=O)O; Ac6c = NC1(C(=O)O)CCCCC1; Nle = CCCC[C@H](N)C(=O)O; PEG4′ = not defined here; Hexanoyl = CCCCCC(=O)*; Propionyl = CCC(=O)*; βAla = NCCC(=O)O

The target in one test is T1, β-catenin, P35222.
T1 chain: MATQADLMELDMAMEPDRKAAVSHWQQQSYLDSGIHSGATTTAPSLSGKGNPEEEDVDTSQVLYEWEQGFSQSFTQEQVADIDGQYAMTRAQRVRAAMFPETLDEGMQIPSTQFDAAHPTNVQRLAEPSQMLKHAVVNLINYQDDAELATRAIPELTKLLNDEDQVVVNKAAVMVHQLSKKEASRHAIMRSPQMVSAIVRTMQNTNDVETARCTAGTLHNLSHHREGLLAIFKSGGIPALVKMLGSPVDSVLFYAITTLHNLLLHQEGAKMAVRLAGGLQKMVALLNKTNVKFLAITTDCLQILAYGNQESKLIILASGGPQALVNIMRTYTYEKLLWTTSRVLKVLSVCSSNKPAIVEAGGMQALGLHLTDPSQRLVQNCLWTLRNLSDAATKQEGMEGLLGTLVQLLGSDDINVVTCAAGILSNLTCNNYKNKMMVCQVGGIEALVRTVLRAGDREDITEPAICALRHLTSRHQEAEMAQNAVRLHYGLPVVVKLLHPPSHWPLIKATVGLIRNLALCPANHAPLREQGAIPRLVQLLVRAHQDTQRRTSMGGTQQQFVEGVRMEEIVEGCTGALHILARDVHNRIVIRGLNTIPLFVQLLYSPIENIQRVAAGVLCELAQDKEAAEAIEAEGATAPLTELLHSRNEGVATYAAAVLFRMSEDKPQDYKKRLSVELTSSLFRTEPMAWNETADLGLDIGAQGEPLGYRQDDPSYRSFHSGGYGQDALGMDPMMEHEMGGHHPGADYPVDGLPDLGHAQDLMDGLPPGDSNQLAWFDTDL
Briefly: ALPHA Screen (BCL9/β-catenin).
The molecule LQTLR[S5]IQR[S5]L[2Nal][βAla][βAla]GRKKRRQRRRPQK([PEG4′-Palmitoyl]) (staple 6-10) [SEQ ID NO: 34a] gave an IC50 of 1.38 µM.

A further test has as its target T1, β-catenin, P35222. In words: cell-based or functional assay.
Regarding LQTLR[S5]IQR[S5]L[2Nal][βAla][βAla]GRKKRRQRRRPQK([PEG4′-Palmitoyl]) (staple 6-10) [SEQ ID NO: 34a], the IC50, Colo320DM cell viability worked out at 20 µM.

The next test concerns the target T2, β-catenin (UniProt P35222 1-781, limits assumed).
T2 sequence (looked up): T1 chain
Briefly: cell-based or functional assay.
With Ac-HRQRSLQTLR[S5]IQR[S5][Ac6c][2Nal]-NH2 (staple 11-15) [SEQ ID NO: 177], the “IC50, Wnt/Beta-Catenin-LEF-TCF-bla HCT116 inhibitor screen” value came to 4.45 µM.
Turning to Ac-HRQRSLQTLR[S5]IQR[S5][Ala(cPr)][2Nal]-NH2 (staple 11-15) [SEQ ID NO: 162], the “IC50, Wnt/Beta-Catenin-LEF-TCF-bla HCT116 inhibitor screen” value is 7.05 µM.
As to B1, the “IC50, Wnt/Beta-Catenin-LEF-TCF-bla HCT116 inhibitor screen” value was 3.16 µM.
The same measure, in the same setting: the value for B2 was 2.21 µM; that for Ac-HR[NMeQ]RSL[NMeQ]TLR[S5]IQR[S5][Cha][2Nal]-NH2 (staple 11-15; also: N-methylQ at 3 and 7: D or L (both stated)) [SEQ ID NO: 181] was 4.46 µM; that for Ac-HRQRSLQTLR[S5]IQR[S5][Cba][2Nal]-NH2 (staple 11-15) [SEQ ID NO: 147] was 1.54 µM.
Still for that read-out and setting: the value for Ac-HR[NMeE]RSL[NMeQ]TLR[S5]IQR[S5][Cba][2Nal]-NH2 (staple 11-15) [SEQ ID NO: 154] was 2.26 µM; that for B3 was 4.43 µM.

A further test has as its target T2, β-catenin. In words: ALPHA Screen (BCL9/β-catenin).
Excerpt: In this assay, a polypeptide is conjugated to a donor bead and its target protein (i.e., β-catenin) is attached to an acceptor bead. When the two beads are in proximity due to the binding of the polypeptide to the target protein, a signal is generated and the binding affinity of the polypeptide can be quantitatively calculated. The assay may be conducted in the presence or absence of an unconjugated control polypeptide.
Turning to B4, the IC50 was 29.5 µM.
Ac-HRQRSLQTLR[S5]IQR[S5][Ac6c][2Nal]-NH2 (staple 11-15) [SEQ ID NO: 177] had an IC50 of 0.211 µM.
The same measure, in the same setting: the value for B5 was 26.9 µM; that for {2‑cyclohexylacetyl}-L[NMeQ]TLR[S5]IQR[S5][Cba][2Nal]-NH2 (staple 6-10; also: N-methyl-Gln at 2: filing says both D and L) [SEQ ID NO: 138] was 3.82 µM; that for B6 was 7.43 µM.
The molecule Hexanoyl-L[NMeQ]TLR[S5]IQR[S5][Cba][2Nal]-NH2 (staple 6-10; also: N-methyl-Gln at 2: filing says both D and L) [SEQ ID NO: 136] displayed an IC50 of 3.52 µM.
Take Ac-L[NMeQ]TLR[S5]IQ[hArg][S5][Cba][2Nal]-NH2 (staple 6-10; also: N-methyl-Gln at 2: filing says both D and L) [SEQ ID NO: 133]: the IC50 was 9.2 µM. Against the preceding molecule, the IC50 is about 2.6-fold higher.
{3,5‑dihydroxybenzoic acid}-L[NMeQ]TLR[S5]IQR[S5][Cba][2Nal]-NH2 (staple 6-10; also: N-methyl-Gln at 2: filing says both D and L) [SEQ ID NO: 140] came in with an IC50 of 8.16 µM.
Ac-HRQ[NMeR]SLQTLR[S5]IQR[S5][Cba][2Nal]-NH2 (staple 11-15) [SEQ ID NO: 168]: the IC50 was determined as 0.434 µM.
Same read-out and setting: to Ac-HRQRSL[peptoid‑Q]TLR[S5]IQR[S5][Cba][2Nal]-NH2 (staple 11-15) [SEQ ID NO: 169] belongs 0.328 µM.
For the molecule Ac-HRQRSLQTLR[S5]IQR[S5][Ala(cPr)][2Nal]-NH2 (staple 11-15) [SEQ ID NO: 162], the midpoint of inhibition, the IC50, lay at 0.322 µM.
For B1, the IC50 is 0.408 µM. This IC50 and that of the molecule before are within 1.5-fold of each other.
With Ac-HRQ[hArg]SLQTLR[S5]IQR[S5][Cba][2Nal]-NH2 (staple 11-15) [SEQ ID NO: 167], the IC50 is 0.356 µM.
The molecule B2 came in with an IC50 of 0.138 µM.
On the same count and under the same terms, the value for B7 was 10.1 µM; that for Diphenylacetyl-L[NMeQ]TLR[S5]IQR[S5][Cba][2Nal]-NH2 (staple 6-10; also: N-methyl-Gln at 2: filing says both D and L) [SEQ ID NO: 139] was 4.58 µM.
On to Propionyl-L[NMeQ]TLR[S5]IQR[S5][Cba][2Nal]-NH2 (staple 6-10; also: N-methyl-Gln at 2: filing says both D and L) [SEQ ID NO: 135], for which the IC50 is 8.54 µM.
Still for that read-out and setting: the value for Hydrocinnamoyl-L[NMeQ]TLR[S5]IQR[S5][Cba][2Nal]-NH2 (staple 6-10; also: N-methyl-Gln at 2: filing says both D and L) [SEQ ID NO: 137] was 8.36 µM.
The same measure, in the same setting: to Ac-HR[NMeQ]RSL[NMeQ]TLR[S5]IQR[S5][Cha][2Nal]-NH2 (staple 11-15; also: N-methylQ at 3 and 7: D or L (both stated)) [SEQ ID NO: 181] belongs 0.186 µM; to Ac-RSLQTLR[S5]IQR[S5]L[2Nal]-NH2 (staple 8-12; not fully specified; printed as RSLQTLRXIQRXL(2-Nal)) [SEQ ID NO: 4], 1.91 µM.
On the same count and under the same terms, to Ac-HRQRSLQTLR[S5]IQR[S5][Cba][2Nal]-NH2 (staple 11-15) [SEQ ID NO: 147] belongs 0.186 µM.
Molecule LQTLR[Nle]IQR[Nle]L[2Nal] [SEQ ID NO: 52] returned an IC50 of 4.7 µM.
The same measure, in the same setting: the value for B8 was 11.2 µM; that for Ac-HR[NMeE]RSL[NMeQ]TLR[S5]IQR[S5][Cba][2Nal]-NH2 (staple 11-15) [SEQ ID NO: 154] was 0.661 µM; that for B3 was 0.195 µM.
